Assay [1] has as its target E6AP-Nanoluc (human) (UniProt Q05086). Nature of the assay: SPR. For orientation: SPR reads the build-up and loss of mass on a sensor chip optically.
For assay [2] the target is unchanged. Kind of assay: FRET or BRET. On the technique in general: In BRET a luciferase serves as donor, and the signal depends on an acceptor being close.

Chain of E6AP-Nanoluc (human) (Q05086 whole entry): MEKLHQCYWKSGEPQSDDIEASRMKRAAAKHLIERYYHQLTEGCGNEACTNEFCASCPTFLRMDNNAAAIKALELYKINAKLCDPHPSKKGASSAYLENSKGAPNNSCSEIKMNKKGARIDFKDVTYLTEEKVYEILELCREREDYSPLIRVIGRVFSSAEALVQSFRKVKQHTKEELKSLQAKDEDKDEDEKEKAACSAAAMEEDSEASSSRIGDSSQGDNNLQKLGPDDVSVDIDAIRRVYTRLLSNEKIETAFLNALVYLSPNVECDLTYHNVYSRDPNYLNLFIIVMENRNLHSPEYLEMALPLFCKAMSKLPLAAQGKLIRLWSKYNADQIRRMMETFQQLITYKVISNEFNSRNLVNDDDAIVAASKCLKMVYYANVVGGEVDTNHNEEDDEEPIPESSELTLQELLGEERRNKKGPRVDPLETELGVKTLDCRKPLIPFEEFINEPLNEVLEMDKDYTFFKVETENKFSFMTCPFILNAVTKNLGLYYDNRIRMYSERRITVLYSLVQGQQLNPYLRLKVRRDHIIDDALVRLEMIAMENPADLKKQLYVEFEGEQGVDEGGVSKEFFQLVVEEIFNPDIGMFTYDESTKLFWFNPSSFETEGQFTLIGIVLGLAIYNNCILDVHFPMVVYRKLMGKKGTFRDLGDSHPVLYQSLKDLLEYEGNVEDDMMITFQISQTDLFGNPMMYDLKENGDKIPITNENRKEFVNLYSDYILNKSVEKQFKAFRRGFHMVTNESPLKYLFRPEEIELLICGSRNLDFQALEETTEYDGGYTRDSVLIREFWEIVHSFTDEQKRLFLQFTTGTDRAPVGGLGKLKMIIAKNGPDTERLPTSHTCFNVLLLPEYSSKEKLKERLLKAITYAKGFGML

Take “MBP-16E6-HaloTag protein (from UniProt P03126) (natural protein)”: the results for the Kd in assay [1] and in assay [2] were 4 nM and 15.3 nM, respectively.

(Values after paper PMC10902388.)
